Here are results for one molecule from patent US20260055211A1.

Experiment [1] addresses anti-PR3 autoantibodies in PR3+ANCA patient serum. The experiment in a line: competition ELISA, medium-titer serum ANCA 97 (1:100) pre-incubated with the binder, unblocked anti-PR3 IgG on a c-ANCA (PR3) ELISA kit, % of untreated. In general terms: ELISA stands for enzyme-linked immunosorbent assay.
Experiment [2] has the same target. The experiment in a line: blocking ELISA: 1:100 serum pre-incubated 30 min with 0 to 100 µg/ml m1, c-ANCA ELISA kit; patient samples 1, 7, 24 and 58.
Experiment [3] shares this target. The experiment in a line: pull-down with binder-coated magnetic beads, serum PR3+ ANCA 60; 100 - (anti-PR3 IgG after binder beads / after control-protein beads x 100), c-ANCA ELISA.
For experiment [4] the target is unchanged. The experiment in a line: competition ELISA, low-titer serum ANCA 93 (1:100) pre-incubated with the binder, unblocked anti-PR3 IgG on a c-ANCA (PR3) ELISA kit, % of untreated.
Experiment [5] shares this target. The experiment in a line: pull-down with binder-coated magnetic beads, serum PR3+ ANCA 4; 100 - (anti-PR3 IgG after binder beads / after control-protein beads x 100), c-ANCA ELISA.
Experiment [6] has the same target. The experiment in a line: blocking ELISA: 1:100 serum pre-incubated 30 min with 0 to 600 µg/ml m1, c-ANCA ELISA kit; 14 out of 15 patient sera of low, medium and high titer.
The target is the same in experiment [7]. The experiment in a line: pull-down with binder-coated magnetic beads, serum PR3+ ANCA 97; 100 - (anti-PR3 IgG after binder beads / after control-protein beads x 100), c-ANCA ELISA.
For experiment [8] the target is unchanged. The experiment in a line: pull-down with binder-coated magnetic beads, serum PR3+ ANCA 93; 100 - (anti-PR3 IgG after binder beads / after control-protein beads x 100), c-ANCA ELISA.
For experiment [9] the target is unchanged. The experiment in a line: depletion with m1-coated magnetic beads (1 mg beads, 1:50 serum, 10 min), flow-through measured by c-ANCA ELISA; five patient sera.
Experiment [10] has the same target. The experiment in a line: competition ELISA, medium-titer serum ANCA 65 (1:100) pre-incubated with the binder, unblocked anti-PR3 IgG on a c-ANCA (PR3) ELISA kit, % of untreated.
The target is the same in experiment [11]. The experiment in a line: competition ELISA: serum PR3+ ANCA 1 (1:100) pre-incubated with the binder, unblocked anti-PR3 IgG measured on a c-ANCA (PR3) ELISA kit, % of untreated.
For experiment [12] the target is unchanged. The experiment in a line: pull-down with binder-coated magnetic beads, serum PR3+ ANCA 91; 100 - (anti-PR3 IgG after binder beads / after control-protein beads x 100), c-ANCA ELISA.

B1: PR3 glycoengineered polypeptide (protein)
chain: IVGGHEAQPHSRPYMASLQMRGNPGSHFCGGTLIHPSFVLTAAHCLRDIPQRLVNVVLGAHNVRTQEPTQQHFSVAQVFLNNYDAENKLNDVLLIQLSSPANLSASVATVQLPQQDQPVPHGTQCLAMGWGRVGAHDPPAQVLQELNVTVVTAACRPHNICTFVPRRKAGICFGDAGGPLICDGIIQGIDSFVIWGCATRAAPDFFTRVALYVDWIRSTLRRVEAKGRPGGGGANSTAPAPAPAHHHHHHHHHH
modifications: N-glycans (81.5% A2GalNAc2, biantennary GalNAc-terminated) at the native sites N129 and N174 (numbering of UniProt P24158) and at the Asn of the C-terminal glycotag; 80-90% of molecules fully …
With B1, the IC50 (read off the curve) in [1] came out at 0.2 µg/mL; in experiment [4] it was 0.5 µg/mL; in [10], 0.4 µg/mL; in [11], 0.4 µg/mL. For the same molecule, the residual binding percentage (residual autoantibodies against untreated serum) in experiment [2] and in [6] was below 50% throughout. The % of depletion in [3] amounted to 91%; in experiment [5], 81%; in [7], 51%; in [8], 88%; in [12], 53%. In [9], the percentage of depletion of anti-PR3 autoantibodies is above 50%.
